Measured values reported in PMC9779362, “The J Domain of Sacsin Disrupts Intermediate Filament Assembly” (International Journal of Molecular Sciences, 2022).

Molecular target: the molecule itself
Assay: negative-stain transmission electron microscopy of in vitro assembly; purified NFL (0.24 µg/µL) dialysed stepwise out of urea into assembly buffer, overnight at 4 °C; 2% uranyl acetate

B1: recombinant human NFL (neurofilament light chain) (natural protein, UniProt P07196 1-543, looked up)
chain: MSSFSYEPYYSTSYKRRYVETPRVHISSVRSGYSTARSAYSSYSAPVSSSLSVRRSYSSSSGSLMPSLENLDLSQVAAISNDLKSIRTQEKAQLQDLNDRFASFIERVHELEQQNKVLEAELLVLRQKHSEPSRFRALYEQEIRDLRLAAEDATNEKQALQGEREGLEETLRNLQARYEEEVLSREDAEGRLMEARKGADEAALARAELEKRIDSLMDEISFLKKVHEEEIAELQAQIQYAQISVEMDVTKPDLSAALKDIRAQYEKLAAKNMQNAEEWFKSRFTVLTESAAKNTDAVRAAKDEVSESRRLLKAKTLEIEACRGMNEALEKQLQELEDKQNADISAMQDTINKLENELRTTKSEMARYLKEYQDLLNVKMALDIEIAAYRKLLEGEETRLSFTSVGSITSGYSQSSQVFGRSAYGGLQTSSYLMSTRSFPSYYTSHVQEEQIEVEETIEAAKAEEAKDEPPSEGEAEEEEKDKEEAEEEEAAEEEEAAKEESEEAKEEEEGGEGEEGEETKEAEEEEKKVEGAGEEQAAKKKD
notes: neurofilament light polypeptide (NFL), human, cloned into pET23b (gift of Dr. Walter Mushynski); Used as assembled filaments (TEM, sedimentation) and as the soluble fraction after centrifugation (pull-down); also called soluble recombinant NFL; source: bacteria (pET23b), inclusion bodies solubilised in 8 M urea, purified on hydroxyapatite, dialysed into assembly buffer
binding result: binds
